According to publication PMC4960544, “Production of full-length soluble Plasmodium falciparum RH5 protein vaccine using a Drosophila melanogaster Schneider 2 stable cell line system” (Scientific Reports, 2016):
Numbering of substitutions follows the chain as printed.

Legend:
Assay in all cases: SPR; basigin immobilised on a CM5 chip by amine coupling (850 RU); PfRH5 variant injected at 8-0.0625 uM, 120 s at 30 uL/min, 300 s dissociation; 20 C; 10 mM HEPES pH 7.4, 150 mM NaCl, 3 mM EDTA, 0.005% Tween-20, 2 mg/mL dextran, 1 mg/mL salmon sperm DNA; blank surface subtracted; global 1:1 interaction model
Conditions in all cases: both partners purified
[1] = target: T1, PfRH5 protein variant version 3.0 (3D7 sequence, four putative N-linked glycosylation sites mutated Asn to … (Plasmodium falciparum (3D7 clone), UniProt Q8IFM5 26-526, N38Q | N214Q | Asn to Gln at N284 | Asn to Gln at N297))
T1 construct: the four putative N-linked glycosylation sites (N38, N214, N284, N297) mutated Asn to Gln; The construct has an N-terminal BiP insect signal peptide (…); No cleavage site for the His6 tag is described; also called PfRH5 v3.0; v3.0
T1 sequence: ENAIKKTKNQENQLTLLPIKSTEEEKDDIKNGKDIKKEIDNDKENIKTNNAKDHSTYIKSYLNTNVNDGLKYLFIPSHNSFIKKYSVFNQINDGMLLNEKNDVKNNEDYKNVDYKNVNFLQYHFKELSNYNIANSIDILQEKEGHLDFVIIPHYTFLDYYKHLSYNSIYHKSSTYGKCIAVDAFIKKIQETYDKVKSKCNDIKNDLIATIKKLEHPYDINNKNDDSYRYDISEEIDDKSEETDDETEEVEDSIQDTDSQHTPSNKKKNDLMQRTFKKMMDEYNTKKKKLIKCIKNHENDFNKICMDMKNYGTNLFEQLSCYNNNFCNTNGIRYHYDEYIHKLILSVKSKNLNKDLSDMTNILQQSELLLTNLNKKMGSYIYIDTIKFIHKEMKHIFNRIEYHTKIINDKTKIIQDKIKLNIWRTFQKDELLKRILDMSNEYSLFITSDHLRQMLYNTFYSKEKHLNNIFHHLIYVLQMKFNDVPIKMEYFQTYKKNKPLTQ

[2] = target: T2, PfRH5 protein variant version 1.0 (7G8 sequence, four N-linked glycosylation sequons mutated Thr to Ala) (Plasmodium falciparum (7G8 …, UniProt Q8IFM5 26-526, C203Y | Thr to Ala in the sequon starting at N38 (position 40 worked out) | Thr …))
T2 construct: The construct has an N-terminal 18-residue BiP insect signal peptide (…) in place of the native one; No cleavage site for the His6 tag is described; also called PfRH5 v1.0; v1.0
T2 sequence: T1 sequence with Q13N, T15A, C178Y, Q189N, T191A, Q259N, T261A, Q272N, T274A

[3] = target: T3, PfRH5 protein variant version 5.0 (native 3D7 PfRH5 sequence) (Plasmodium falciparum (3D7 clone), UniProt Q8IFM5 26-526, N-linked glycan(s): one or both of the N-X-T sequons starting at N38 and N214 are glycosylated)
T3 construct: The construct has an N-terminal BiP insect signal peptide (…); No cleavage site for the His6 tag is described; also called PfRH5 v5.0; v5.0; source: without the Con A step
T3 sequence: T1 sequence with Q13N, Q189N, Q259N, Q272N

Measured: binding result

B1: recombinant basigin, immunoglobulin domains 1 and 2 of the short isoform (22-205) (domain or fragment)
chain: GAAGTVFTTVEDLGSKILLTCSLNDSATEVTGHRWLKGGVVLKEDALPGQKTEFKVDSDDQWGEYSCVFLPEPMGTANIQLHGPPRVKAVKSSEHINEGETAMLVCKSESVPPVTDWAWYKITDSEDKALMNGSESRFFVSSSQGRSELHIENLNMEADPGQYRCNGTSSKGSDQAIITLRVRSH
notes: additional glycine left at the N-terminus from the TEV cleavage site; basigin (CD147), immunoglobulin domains 1 and 2 of the short isoform, residues 22-205; numbers count on: the short isoform; basigin is spoken of as the red blood cell receptor of the human malaria parasite; also called CD147; PfRH5 receptor; not shown: His6, N-terminal, cleaved
binds: [1] | [2] | [3]
